{
  "source": "patent US20230117205A1",
  "about": "“B7-H4 ANTIBODY-DRUG CONJUGATES FOR THE TREATMENT OF CANCER” (SEAGEN INC., priority 2021, published 2023)",
  "molecular_target": "T1, hFcγRIIb (Homo sapiens, UniProt P31994)",
  "T1 construct": "made in house",
  "T1 sequence (P31994 43-310)": "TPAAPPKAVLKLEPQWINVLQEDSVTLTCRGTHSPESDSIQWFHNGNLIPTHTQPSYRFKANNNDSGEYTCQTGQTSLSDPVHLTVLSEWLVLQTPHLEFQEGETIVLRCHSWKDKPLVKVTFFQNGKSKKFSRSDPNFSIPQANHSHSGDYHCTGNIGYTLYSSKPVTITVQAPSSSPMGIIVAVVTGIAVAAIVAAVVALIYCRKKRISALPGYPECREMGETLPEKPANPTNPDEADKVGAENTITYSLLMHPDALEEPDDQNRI",
  "assay": "BLI binding to human Fc receptors",
  "conditions": "low data quality",
  "data": [
    {"substance": "SGN-B7H4V: ADC of fully human IgG1 anti-B7-H4 mAb conjugated to monomethyl auristatin E (MMAE) via a protease-cleavable valine-citrulline linker (vedotin)", "values": [
      {"measurement": "affinity", "result": "weakest affinity"}
    ]}
  ]
}
